Where only a bound is given, the exact number is not on record here.

The nature of data set [1]: Thermostability assay: residual OTA detoxification activity after 10 min incubation at 45-99° C. (T50). The class given is physicochemical. The conditions noted are these: 0.1 mg/mL protein in 20 mM Tris-HCl pH 7.5, residual OTA detoxification activity relative to 4° C. reference aliquot. The gist of the method:
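T50 marks the temperature range at which half the starting OTA-detoxifying activity is lost, versus an unheated 4 °C reference. Samples were 0.1 mg/mL purified protein in 20 mM Tris-HCl pH 7.5, exposed for 10 min to 45, 55, 65, 75, 80, 85, 90, 95 or 99 °C.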

Data set [2] is described as follows: OTA detoxification activity assay (specific activity, fluorescence reduction ex/em 390/450 nm). In kind it is biochemical. The conditions noted are these: SEQ ID NO: 2 = 100%. The gist of the method: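 Recombinant enzyme preparation with 200 ng/mL OTA in 100 mM sodium phosphate, at pH 6.0 and pH 7.5, 37° C. Degradation followed as the fall in fluorescence at ex/em 390/450 nm. Specific activity taken from the initial linear slope; one unit degrades 1 μmol OTA per min at a starting OTA of […].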

B1: 43 (protein)
chain: MYSLAIRNGIVFDGEKFIGKTNIYVDGDKIVKITNERLDAKEEVNAEGYFVMPGLIDAHLHLTGIRGGSLLMGYLLDDPRTRLLRAANWARELLMAGFTTVRDCGEPNSIILRNAINEGIIPGPRIIAAGSAITQTFGHAELSHSLPLEWSIQLGFGEICDGVDECIKAARKVLRSGADFIKIMATGGVLSERDRPEWPQLTPEEMSAIVREAEKVGTYVAAHAHGDKGARIAVEAGVRTIEHGSLITEETVKLMAEKGVSLTPTLSIQELIYKYGKQMGIDPWGLEKIGQVREGVINSIKLARKYGVMILAGTDLGFKTGLDIDMGKNWVEVKLLVELGGLSSEEALRAATGNASKMLRLNTGIIREGYLADIVLINGNPLENINDIARVSTVIKGGKVTVENGKLI
modifications: exemplary polypeptide
With B1, in data set [1], the “T50 (temperature at which 50% of the initial activity was maintained)” value was more than 99 °C. Moreover, in data set [2], the “Specific OTA detoxification activities in % compared to the enzyme of SEQ ID NO: 2, pH 6.0” value stood at 46.00% and the “Specific OTA detoxification activities in % compared to the enzyme of SEQ ID NO: 2, pH 7.5” value is 19.00%.

B2: 47 (protein)
chain: MYSLAIRNGIVFDGEKFIGKTNIYVDGDKIVKITNERLDAKEEVNAEGYFVMPGLIDAHLHLTGARGGSLLMGYLLDDPRTRLLRAANWARELLMAGFTTVRDCGGPNSIILRNAINEGIIPGPRIIAAGSAITQTFGHAELSHSLPLEWSIQLGFGEICDGVDECIKAARKVLRSGADFIKIMATGGVLSERDRPEWPQLTPEEMSAIVREAEKVGTYVAAHAHGDKGARIAVEAGVRTIEHGSLITEETVKLMAEKGVSLTPTLSAIELVYKVGKQMGIDPWGLEKIGQVREGVINSIKLARKYGVMILAGTDLGVKTGLDIDMGKNWVEVKLLVELGGLSSEEALRAATGNASKMLRLNTGIIREGYLADIVLINGNPLENINDIARVSTVIKGGKVTVENGKLI
modifications: exemplary polypeptide
With B2, in data set [1], the “T50 (temperature at which 50% of the initial activity was maintained)” value is more than 99 °C. For the same molecule, in data set [2], the “Specific OTA detoxification activities in % compared to the enzyme of SEQ ID NO: 2, pH 6.0” value was 85.00% and the “Specific OTA detoxification activities in % compared to the enzyme of SEQ ID NO: 2, pH 7.5” value was 267.00%.

B3: 44 (protein)
chain: MYSLAIRNGIVFDGEKFIGKTNIYVDGDKIVKITNERLDAKEEVNAEGYFVMPGLIDAHLHLTGIRGGSLLMGYLLDDPRTRLLRAANWARELLMAGFTTVRDCGEPNSIILRNAINEGIIPGPRIIAAGSPITQTFGHAELSHSLPLEWSIQLGFGEICDGVDECIKAARKVLRSGADFIKIMATGGVLSERDRPEWPQLTPEEMSAIVREAEKVGTYVAAHAHGDKGARIAVEAGVRTIEHGSLITEETVKLMAEKGVSLTPTLSIQELVYKYGKQMGIDPWGLEKIGQVREGVINSIKLARKYGVMILAGTDLGFKTGLDIDMGKNWVEVKLLVELGGLSSEEALRAATGNASKMLRLNTGIIREGYLADIVLINGNPLENINDIARVSTVIKGGKVTVENGKLI
modifications: exemplary polypeptide
Take B3: the “T50 (temperature at which 50% of the initial activity was maintained)” value in data set [1] was more than 99 °C. In data set [2], the “Specific OTA detoxification activities in % compared to the enzyme of SEQ ID NO: 2, pH 6.0” value was 84.00% and the “Specific OTA detoxification activities in % compared to the enzyme of SEQ ID NO: 2, pH 7.5” value came to 84.00%.

B4: 37 (protein)
chain: MYSLAIRNGIVFDGEKFIGKTNIYVDGDKIVKITNERLDAKEEVNAEGYFVMPGLIDAHLHLTGIRGGSLLMGYLLDDPRTRLLRAANWARELLMAGFTTVRDCGGPNSIILRNAINEGIIPGPRIIAAGSPITQTFGHAELSHSLPLEWSIQLGFGEICDGVDECIKAARKVLRSGADFIKIMATGGVLSERDRPEWPQLTPEEMSAIVREAEKVGTYVAAHAHGDKGARIAVEAGVRTIEHGSLITEETVKLMAEKGVSLTPTLSIQELIYKYGKQMGIDPWGLEKIGQVREGVINSIKLARKYGVMILAGTDLGFKTGLDIDMGKNWVEVKLLVELGGLSSEEALRAATGNASKMLRLNTGIIREGYLADIVLINGNPLENINDIARVSTVIKGGKVTVENGKLI
modifications: exemplary polypeptide
Regarding B4, in data set [1], the “T50 (temperature at which 50% of the initial activity was maintained)” value was more than 99 °C. Also, in data set [2], the “Specific OTA detoxification activities in % compared to the enzyme of SEQ ID NO: 2, pH 6.0” value is given as 42.00% and the “Specific OTA detoxification activities in % compared to the enzyme of SEQ ID NO: 2, pH 7.5” value worked out at 187.00%.

B5: 46 (protein)
chain: MYSLAIRNGIVFDGEKFIGKTNIYVDGDKIVKITNERLDAKEEVNAEGYFVMPGLIDAHLHLTGIRGGSLLMGYLLDDPRTRLLRAANWARELLMAGFTTVRDCGEPNSIILRNAINEGIIPGPRIIAAGSPITQTFGHAELSHSLPLEWSIQLGFGEICDGVDECIKAARKVLRSGADFIKIMATGGVLSERDRPEWPQLTPEEMSAIVREAEKVGTYVAAHAHGDKGARIAVEAGVRTIEHGSLITEETVKLMAEKGVSLTPTLSIQELIYKHGKQMGIDPWGLEKIGQVREGVINSIKLARKYGVMILAGTDLGFKTGLDIDMGKNWVEVKLLVELGGLSSEEALRAATGNASKMLRLNTGIIREGYLADIVLINGNPLENINDIARVSTVIKGGKVTVENGKLI
modifications: exemplary polypeptide
B5: in data set [1], the “T50 (temperature at which 50% of the initial activity was maintained)” value is more than 99 °C. Further, in data set [2], the “Specific OTA detoxification activities in % compared to the enzyme of SEQ ID NO: 2, pH 6.0” value is 82.00% and the “Specific OTA detoxification activities in % compared to the enzyme of SEQ ID NO: 2, pH 7.5” value turned out to be 66.00%.

B6: 38 (protein)
chain: MYSLAIRNGIVFDGEKFIGKTNIYVDGDKIVKITNERLDAKEEVNAEGYFVMPGLIDAHLHLTGIRGGSLLMGYLLDDPRTRLLRAANWARELLMAGFTTVRDCGSPNSIILRNAINEGIIPGPRIIAAGSPITQTFGHAELSHSLPLEWSIQLGFGEICDGVDECIKAARKVLRSGADFIKIMATGGVLSERDRPEWPQLTPEEMSAIVREAEKVGTYVAAHAHGDKGARIAVEAGVRTIEHGSLITEETVKLMAEKGVSLTPTLSIQELIYKYGKQMGIDPWGLEKIGQVREGVINSIKLARKYGVMILAGTDLGFKTGLDIDMGKNWVEVKLLVELGGLSSEEALRAATGNASKMLRLNTGIIREGYLADIVLINGNPLENINDIARVSTVIKGGKVTVENGKLI
modifications: exemplary polypeptide
With B6, the “T50 (temperature at which 50% of the initial activity was maintained)” value in data set [1] was more than 99 °C. Besides, in data set [2], the “Specific OTA detoxification activities in % compared to the enzyme of SEQ ID NO: 2, pH 6.0” value came out at 11.00% and the “Specific OTA detoxification activities in % compared to the enzyme of SEQ ID NO: 2, pH 7.5” value is listed as 53.00%.

B7: 36 (protein)
chain: MYSLAIRNGIVFDGEKFIGKTNIYVDGDKIVKITNERLDAKEEVNAEGYFVMPGLIDAHLHLTGARGGSLLMGYLLDDPRTRLLRAANWARELLMAGFTTVRDCGEPNSIILRNAINEGIIPGPRIIAAGSPITQTFGHAELSHSLPLEWSIQLGFGEICDGVDECIKAARKVLRSGADFIKIMATGGVLSERDRPEWPQLTPEEMSAIVREAEKVGTYVAAHAHGDKGARIAVEAGVRTIEHGSLITEETVKLMAEKGVSLTPTLSIQELIYKYGKQMGIDPWGLEKIGQVREGVINSIKLARKYGVMILAGTDLGFKTGLDIDMGKNWVEVKLLVELGGLSSEEALRAATGNASKMLRLNTGIIREGYLADIVLINGNPLENINDIARVSTVIKGGKVTVENGKLI
modifications: exemplary polypeptide
In the case of B7, the “T50 (temperature at which 50% of the initial activity was maintained)” value in data set [1] came to 99 °C. Moreover, in data set [2], the “Specific OTA detoxification activities in % compared to the enzyme of SEQ ID NO: 2, pH 6.0” value turned out to be 117.00% and the “Specific OTA detoxification activities in % compared to the enzyme of SEQ ID NO: 2, pH 7.5” value was 309.00%.

B8: 45 (protein)
chain: MYSLAIRNGIVFDGEKFIGKTNIYVDGDKIVKITNERLDAKEEVNAEGYFVMPGLIDAHLHLTGIRGGSLLMGYLLDDPRTRLLRAANWARELLMAGFTTVRDCGEPNSIILRNAINEGIIPGPRIIAAGSPITQTFGHAELSHSLPLEWSIQLGFGEICDGVDECIKAARKVLRSGADFIKIMATGGVLSERDRPEWPQLTPEEMSAIVREAEKVGTYVAAHAHGDKGARIAVEAGVRTIEHGSLITEETVKLMAEKGVSLTPTLSIQELIYKFGKQMGIDPWGLEKIGQVREGVINSIKLARKYGVMILAGTDLGFKTGLDIDMGKNWVEVKLLVELGGLSSEEALRAATGNASKMLRLNTGIIREGYLADIVLINGNPLENINDIARVSTVIKGGKVTVENGKLI
modifications: exemplary polypeptide
In the case of B8, the “T50 (temperature at which 50% of the initial activity was maintained)” value in data set [1] is more than 99 °C. Moreover, in data set [2], the “Specific OTA detoxification activities in % compared to the enzyme of SEQ ID NO: 2, pH 6.0” value was 168.00% and the “Specific OTA detoxification activities in % compared to the enzyme of SEQ ID NO: 2, pH 7.5” value is recorded as 138.00%.

B9: 35 (protein)
chain: MYSLAIRNGIVFDGEKFIGKTNIYVDGDKIVKITNERLDAKEEVNAEGYFVMPGLIDAHLHLTGGRGGSLLMGYLLDDPRTRLLRAANWARELLMAGFTTVRDCGEPNSIILRNAINEGIIPGPRIIAAGSPITQTFGHAELSHSLPLEWSIQLGFGEICDGVDECIKAARKVLRSGADFIKIMATGGVLSERDRPEWPQLTPEEMSAIVREAEKVGTYVAAHAHGDKGARIAVEAGVRTIEHGSLITEETVKLMAEKGVSLTPTLSIQELIYKYGKQMGIDPWGLEKIGQVREGVINSIKLARKYGVMILAGTDLGFKTGLDIDMGKNWVEVKLLVELGGLSSEEALRAATGNASKMLRLNTGIIREGYLADIVLINGNPLENINDIARVSTVIKGGKVTVENGKLI
modifications: exemplary polypeptide
Turning to B9, the “T50 (temperature at which 50% of the initial activity was maintained)” value in data set [1] came out at 99 °C. For the same molecule, in data set [2], the “Specific OTA detoxification activities in % compared to the enzyme of SEQ ID NO: 2, pH 6.0” value is recorded as 56.00% and the “Specific OTA detoxification activities in % compared to the enzyme of SEQ ID NO: 2, pH 7.5” value is on record as 136.00%.

These data come from patent publication US20240352438A1, “MEANS AND METHODS FOR DETOXIFYING OCHRATOXIN A” (DSM Austria GmbH, priority 2021, published 2024).
